Reference: patent US20080305522A1 (MITSUKAN GROUP, published 2008)

T1: polypeptide NBS (neoculin basic subunit), purified from the fruit of Curculigo latifolia (Curculigo latifolia, UniProt P19667 23-136)
T1 construct: Subunit of native neoculin, without a sugar chain; It has 115 residues: curculin B plus one extra C-terminal Gly; also called 11 kDa subunit
T1 sequence: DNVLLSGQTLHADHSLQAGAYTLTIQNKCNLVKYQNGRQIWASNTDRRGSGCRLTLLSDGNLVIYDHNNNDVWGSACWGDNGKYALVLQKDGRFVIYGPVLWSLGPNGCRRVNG

T2: recombinant NBS secreted by Aspergillus oryzae NS-NAB2 (three Gly residues before the N terminus) (Curculigo latifolia, UniProt P19667 23-136)
T2 construct: Expressed as an alpha-amylase fusion and cleaved at Lys-Arg by a KEX2-like protease; also called 11 kDa band of recombinant neoculin
T2 sequence: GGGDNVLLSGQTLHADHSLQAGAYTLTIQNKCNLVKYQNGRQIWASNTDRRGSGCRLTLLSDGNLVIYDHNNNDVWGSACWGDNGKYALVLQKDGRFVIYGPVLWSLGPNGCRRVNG

B1: polypeptide NAS (neoculin acidic subunit), purified from the fruit of Curculigo latifolia (other)
chain: DSVLLSGQTLYAGHSLTSGSYTLTIQNNCNLVKYQHGRQIWASDTDGQGSQCRLTLRSDGNLIIYDDNNMVVWGSDCWGNNGTYALVLQQDGLFVIYGPVLWPLGLNGCRSLN
modifications: N-linked sugar chain, mannose/N-acetylglucosamine/fucose/xylose at a ratio of about 3/2/1/1; binding site 'may possibly be asparagine-81' of SEQ ID NO.2
notes: Subunit of native neoculin; It separates from NBS only under reducing conditions in SDS-PAGE; also called 13 kDa subunit
B2: recombinant NAS secreted by Aspergillus oryzae NS-NAB2 (three Gly residues before the N terminus) (other)
chain: GGGDSVLLSGQTLYAGHSLTSGSYTLTIQNNCNLVKYQHGRQIWASDTDGQGSQCRLTLRSDGNLIIYDDNNMVVWGSDCWGNNGTYALVLQQDGLFVIYGPVLWPLGLNGCRSLN
notes: Expressed as an alpha-amylase fusion and cleaved at Lys-Arg by a KEX2-like protease; Glycosylation in the koji mold is not described; also called 13 kDa band of recombinant neoculin

Key:
[1] = biological target: T1, polypeptide NBS (neoculin basic …); assay: SDS-PAGE under reducing and non-reducing conditions, CBB staining, native neoculin
Protocol: 2.5 μg of the purified neoculin powder obtained above in (1) to (3) was subjected to SDS-PAGE under reducing conditions or non-reducing conditions at a gel concentration of 15% and subsequently to CBB staining. […] Thus, the individual subunits were designated as neoculin acidic subunit (NAS) and neoculin basic subunit (NBS).

[2] = biological target: the molecule itself; assay: phenyl hydrophobic column fractions, SDS-PAGE under reducing/non-reducing conditions and western blotting
[3] = biological target: T2, recombinant NBS secreted by Aspergillus …; assay: as above

Binder	binding result [1]	binding result [2]	binding result [3]
B1	binds		
B2		binds	binds
